{
  "source": "paper PMC8894873",
  "origin": "cited, not measured here",
  "biological_target": "Glu66 (UniProt position 148, FTKKMEENAKK)",
  "assay": "stability (inferred; the article mentions only a pH dependence of stability)",
  "data": [
    {"substance": "Staphylococcal nuclease V66E variant (Staphylococcus aureus; V66E)", "values": [
      {"measurement": "pKa", "value": 8.8}
    ]}
  ]
}
